This is an account of results in patent US7807397B2, “Diagnostic method for disorders using copeptin” (B.R.A.H.M.S Aktiengesellschaft, priority 2004, dated 2010).

One data set deals with blood platelets. As to conditions: reference [21]; cited from earlier work.
The conditions of data set [1]: reference [14]; cited from earlier work.
The format of data set [2] is in vitro ADME, human. Here is the method: The following assay buffer was used: 100 mM sodium phosphate, 150 mM NaCl, 5% bovine serum albumin, 0.1% unspecified sheep IgG, 0.1% sodium azide, pH 7.4.
As a standard material chemically synthesized peptide (peptide PAY 33) was used which corresponds to positions 132-164 of vasopressin-neurophysin 2-copeptin precursor. The standard was diluted in normal horse serum (Sigma). […]
In the test tubes 100 μl of standards or sample as well as 100 μl of assay buffer was pipetted. The tubes were incubated for two hours at 22° C. using gentle rotation. After washing 4 times with 1 ml of washing buffer (0.1% Tween 20), the supernatant was discarded. Then 200 μl of assay buffer, containing 1 million RLU (relative light units) of MA70-tagged antibody was added and incubated for a further two hours under gentle rotation at 22° C. After washing 4 times with 1 ml of washing buffer (0.1% Tween 20), the chemiluminescence bound to the tube was determined in a luminometer (Berthold, LB952T, basic reagents Brahms AG).
Using the software MULTICALC® (Spline Fit), the concentrations of the samples were determined.
The term copeptin immunoreactivity describes the amount of substrate detected by the developed sandwich immunoassay. The sandwich immunoassay uses antibodies raised against positions 132-147 and 149-164 of the vasopressin-neurophysin 2-copeptin-precursor for detection of the substrate. A typical standard curve for the developed assay is described in FIG. 1. Using the assay concentrations above 50 pg/ml copeptin immunoreactivity in plasma or serum can be determined quantitatively.

Where two headings read alike, the source gives them in different places. Where no end group is shown, it is not given here.

Take `NC(=O)CC[C@@H]1NC(=O)[C@H](Cc2ccccc2)NC(=O)[C@H](Cc2ccc(O)cc2)NC(=O)[C@@H](N)CSSC[C@@H](C(=O)N2CCC[C@H]2C(=O)N[C@@H](CCCN=C(N)N)C(=O)NCC(N)=O)NC(=O)[C@H](CC(N)=O)NC1=O` [vasopressin]: the “fraction bound to blood platelets” value in the data set on blood platelets is “More than 90%”. The half-life in vivo in data set [1] was 24 min.
“copeptin: C-terminal glycoprotein of the VP prohormone, 39 amino acids plus sugar moiety; measured as endogenous copeptin immunoreactivity (ASDRSNATQLDGPAGALLLRLVQLAGAPEPFEPAQPDAY; also: glycosylated (sugar moiety); UniProt P01185 126-164, looked up)”: the “Recovery (%)” value in data set [2] (plasma (n = 5), storage 1 d/4° C.) turned out to be 103.4%; in data set [2] (plasma (n = 5), storage 1 d/RT), 99.9%; in data set [2] (plasma (n = 5), storage 2 d/4° C.), 101.6%; in data set [2] (plasma (n = 5), storage 2 d/RT), 104.9%; in data set [2] (serum (n = 3), storage 1 d/4° C.), 98.0%; in data set [2] (serum (n = 3), storage 1 d/RT), 94.1%. The “Recovery (%)” value in data set [2] (serum (n = 3), storage 2 d/4° C.) is on record as 99.2%; in data set [2] (serum (n = 3), storage 2 d/RT), 103.7%.
